According to publication PMC8809517, “Cofactor-independent RNA editing by a synthetic S-type PPR protein”:
Residue numbers refer to the chain shown, from its start.

T1: GFP-9S library array, motif 4 ND N98T;D124M (synthetic construct, N98T;D124M)
T1 chain: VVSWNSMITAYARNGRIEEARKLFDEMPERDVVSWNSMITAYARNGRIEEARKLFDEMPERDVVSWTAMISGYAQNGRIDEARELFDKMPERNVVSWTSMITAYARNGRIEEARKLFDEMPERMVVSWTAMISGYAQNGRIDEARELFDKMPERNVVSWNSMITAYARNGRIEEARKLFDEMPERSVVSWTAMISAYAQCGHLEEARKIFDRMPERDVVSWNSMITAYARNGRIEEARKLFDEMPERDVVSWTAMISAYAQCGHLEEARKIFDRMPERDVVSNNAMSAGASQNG

T2: GFP-9S library array, motif 4 ND N98G;D124R (synthetic construct, N98G;D124R)
T2 chain: T1 chain with T98G, M124R

T3: GFP-9S library array, motif 4 ND N98I;D124G (synthetic construct, N98I;D124G)
T3 chain: T1 chain with T98I, M124G

T4: GFP-9S library array, motif 4 ND N98Y;D124M (synthetic construct, N98Y;D124M)
T4 chain: T1 chain with T98Y

T5: GFP-9S library array, motif 4 ND D124H (synthetic construct, D124H)
T5 chain: T1 chain with T98N, M124H

B1: Cy5-rpoA-G (ssRNA)
RNA: AUUAGACGUGA
B2: IR-rpoA-U (ssRNA)
RNA: AUUAUACGUGA
B3: Cy5-rpoA (ssRNA)
RNA: AUUACACGUGA
B4: IR-rpoA-A (ssRNA)
RNA: AUUAAACGUGA

Columns and labels:
Experiment in all cases: high-throughput RNA pulldown from lysate on Ni-NTA beads; HRP: 50 mM Tris pH 8, 150 mM NaCl, 1 mM beta-mercaptoethanol, 50 ug/ml BSA, 3 ug/ml yeast RNA, 0.5% heparin; ITC and FP: Tris pH 8, 200 mM KCl, 5% glycerol; MST: 50 mM Tris pH 8, 200 mM NaCl, 1 mM DTT, BSA, heparin, 0.05% Tween 20
Conditions in all cases: tags: N-terminal His-eGFP
[1] = molecular target: T1, GFP-9S library array, motif 4 ND …
[2] = molecular target: T2, GFP-9S library array, motif 4 ND …
[3] = molecular target: T3, GFP-9S library array, motif 4 ND …
[4] = molecular target: T4, GFP-9S library array, motif 4 ND …
[5] = molecular target: T5, GFP-9S library array, motif 4 ND D124H

Binder | Kd ([1]; label: 5' Cy5) [nM] | Kd ([2]; label: 5' Cy5) [nM] | Kd ([3]; label: 5' Cy5) [nM] | Kd ([4]; label: 5' Cy5) [nM] | Kd ([5]; label: 5' Cy5) [nM] | Kd ([1]; label: 5' IRDye 800CW) [nM] | Kd ([2]; label: 5' IRDye 800CW) [nM] | Kd ([3]; label: 5' IRDye 800CW) [nM] | Kd ([4]; label: 5' IRDye 800CW) [nM] | Kd ([5]; label: 5' IRDye 800CW) [nM]
B1 | 107 | 115 | 72 | 36.2 | 287 |  |  |  |  | 
B2 |  |  |  |  |  | 165 | 116 | 26.6 | 154 | 40.7
B3 | 101 | 100 | 69.2 | 40.8 | 166 |  |  |  |  | 
B4 |  |  |  |  |  | 162 | 158 | 40.6 | 124 | 285
